B1: pVII (f1 phage minor capsid protein) (natural protein, f1 filamentous phage, UniProt P69534 1-33, looked up)
chain: MEQVADFDTIYQAMIQISVVLCFALGIIAGGQR

How the values were obtained:
[1] = target: the molecule itself; experiment: cryo-EM structure
[2] = target: B1; experiment: cryo-EM structure

Binder	stoichiometry N [1]	binding result [2]
B1	5	–
pVI (f1 phage minor capsid protein) (natural protein, f1 filamentous phage, UniProt P69531 1-112, looked up) MPVLLGIPLLLRFLGFLLVTLFGYLLTFLKKGFGKIAIAISLFLALIIGLNSILVGYLSDISAQLPSDFVQGVQLILPSNALPCFYVILSVKAAIFIFDVKQKIVSYLDWDK	5	–
MSVLVYSFASFVLGWCLRSGITYFTRLMETSS (natural protein, f1 filamentous phage, UniProt P69537 1-32, looked up) [pIX (f1 phage minor capsid protein)]	–	binds

Reference: publication doi:10.1101/2022.11.03.514279 (bioRxiv, 2022)
